The DeepSol protein solubility set

Test: soluble on expression in E. coli; label from the status in PepcDB or PDB records

Soluble on expression in E. coli, not soluble:
MGSDKIHHHHHHMSDLSQRIAELSPEKLKLLVQRLNNKQGEILLRSPIVPQSRELNSFPLSSAQQRLWFIDQLQPGNSAYNISVPMRLGGWLNVAALEQSFKEVVKRHEVLRTTFTVVDGQPLQVIASSLSFTLPVVDLQKLPQNQREAEVLRLASEEAQQPFDLAQGPLLRATLLQLAAAEYALLLTMHHIIADGWAIGVLIREIADLYKAFSVGKPSPLSELSIQYVDFAVWQQQWLQGQLETQLAYWQQQLGSIPVVELPSDFPRSTTQTFSGAREALVLPKTLCDRLKTLNQRQGITLFMVLLAAFGALLNWYTDREDIVVGTDIANRNQAETKALIGFFANQLVLRTNLSKNPTFLELLERVREMTLEAYAHQDLPFDKLVDALNPKRELNRTPLFQVKLVLENTQTPSLELPGLTISSLKIENKTVQFDLLLELNETEQGLFGIWEYSTDLFERDSIVRLSKNFATLLAEVATHPEAKLSELKAVLNQVDKQQHLAKEQVYQNTIQQKLMNVKRRANSRQSTSGNTNHDKN, MGSDKIHHHHHHMSDSAKQPELWLMGLGCEEERSTAVLDYLRHAGYSVVCRGRDDFGDTKPLGVVLDVSPFSHDGWGILLDIKNNPATRDVPILPVYLSQEGKIGGVFPAAGFFTLPIDTDYMMKKLTVLGLTDEADTWDLQVMVISKKGEESVAKAITSLGFEVVNAYTGKEAVALATTGRAYMIFCSVTLPDMHSFELLERFRLYPQVRNVPFFVLVKDAMKEGERLALSRQMDHLVRKKELSRDEFLAYLRRRG, MGSDKIHHHHHHMSDTHIGAKSLTIEEREQDYYDTFQEAVEIAIDEKVDFIIHSGDLFDTWIPGNRSMKVFRDAMMKLNDRQIPVFYVFGDHDRPRRNSESAAGIFDFLGLHILGRDEFAGIEREFSGMKVFIGGISNMKGYLRNQLKEEYKKAESASTGYKNSILISHQALDPIFIPEQCEAKVNDLPMNYSYIAMGHLHDFVEREIGPLLSYPGSTELKSDREINGLLKMGKGINVIDLDNGVASLHRVKLKKVRYQFKVESDPENYLEEIKSILDKYANAIGEKKPIVNLIINGQISMEEVYEDLKKINGAIFNRPQILKIVDMPNVPSGSSELREYFQAFLKDQKLTDLAMKVFQHTADGDKEAIIREAAGEAIDN, MGSDKIHHHHHHMSDWTDRLPEAARAYIADRRVDEVECILSDIAGVARGKAMPAFKFGKQTSFFLPNSIFLQTITGEWADNPSGAFTEPDMILIPDYSTATAAPWTADITLQVIHDAVDQQGRPVPVSPRNVLRRVVELYNAEGWTPIVAPEMEFFLVARNIDPNMPVMPPMGRTGRRAAAKQAYSMSAVDEYGKVIDDIYDFAEAQGFEIDGILQEGGAGQVEINLAHGDPVALADQIFFFKRLIREAALRHDCFATFMAKPIEGEPGSAMHIHHSVVDSASKLNIFSDAKGGETEAFLHFIAGMQTHLPAAVALLAPYVNSYRRYVPDFAAPINLEWGRDNRTTGLRVPISGPEARRLENRLAGMDCNPYLGLAASLACGYLGLKERKMPQPECTGDAYMSETDLPYNLGDALDLLEEDAALRDVLGPEFCGVYDSVKRNEYKEFLQVISPWEREHLLLNV, MGSDKIHHHHHHMSEIASTKARKRCAVYCRVSSDERLDQEFNSIDAQKEAGHAYVASQRSEGWISVADDYDDPGFSGGNTDRPGLKRLMADIERGQIDIVVVYKIDRLTRSLADFSKMVEVFERHEVSFVSVTQQFNTTTSMGRLMLNVLLSFAQFEREVTGERIRDKIAAAKRKGMWMGGVPPLGYDVDNRLLVINETEAAVVRRIFEEMLTIGSPTQIAVNLTADGITNKAWTTQEGQTRNGTRIDKKYLHNLLRNRIYLGELSHKGNWYPGAHLPIIDRELWDKVHAVLARDGHARSVETKIRSRTDALLRGLLYAPSGERMYPTYSRKNGRKYHYYVSKSESRFGAPGKSY, MGSDKIHHHHHHMSELITTGVDIGSGCIKTVVFKVNGDKVEWLGKETSRIRNRDPFQLTTETYNHMLKSAGVDAKDVAYVASTGDAENLSFATGHFYSMTTHGRGGLYLNPEARAVLDIGALNGRAIRMDGVGKVLSYKMTSQCASGSGQFLENIARYLGIAQDEIGSLSMKADDPEKVSSICAVLAETDVINMVSRGISASNILKGIHVSMAVRLAKLLKSIGAVDGIVQVTGGLALDTGLVAALNEAAEQEKVNLKAVSHPDSIYAGAIGAALWGAFRHEKLARLGQAA, MGSDKIHHHHHHMSELRQQCLWEHVSKPTVAAQALAGEHKADVCVIGGGITGLSAAIHLLEQGKSVIVLEAWKIGHGGSGRNVGLVNAGTWIRPDDVEATLGQKQGSRLNKVLGEAPAEVFAMIERLGIDCQAQHKGTLHMAHNATGIADLEARHEQWRRRGADVELLTGAQCQEYCGTDKISAALLDRRAGTINPMGYTQGLAAAVTRLGGKIFQQSSVEGLEREGDGWRVKTARGAVRAEKVVISTGAYTEGDWSNLQKQFFRGYYYQVASKPLQGIAADKVLPHGQGSWDTRTVLSSIRRDDQGRLLLGSLGRVDNKPAWFVRSWADRIQSHYYPELGKVEWEMHWTGCIDFTPDHLMRLFEPAPGLVAVTGYNGRGNTTGTVIGRAFAEFLLKGEADSLPIPFSPMSGVSAPSLRTAFYESGFSLYHAGQCLRVVL, MGSDKIHHHHHHMSERLRVLVVSHGHPAMSLGGAEIASHSLHKGLNTLPGVESIYLARVGHPVPRHGASALMSLRLAVDEVLFHADDYDHFFLSNGDTEAIRRDLLRFIGDLSPHVIHFHHLIGMGMEALYALREALPEAVIVVTFHEYLSLCHNHGQMVKRPSAQLCNSSSPISCHGCFPDIPVSRFLRREEFLRGMLGLADAFISPSMFLANRYVEWGIDAEKLSVIDNGIVMGEAAPVRDLPVPSARRNRFAYFGQMTPFKGIDVLVDAVSRVPEEIWGEDSCLMIFGGNLERQPAEFQERLKKLIDDAGRRVRFYGAYQNADMPRLMRSVDWVVLPSIWWENSPVVIQEALHHRRPIICSDIGGMAEKVQDGRDGLHFRAGSAQDLADRLSDVLVKPEAWDRLHATLRPPTGHAESARAHADLYRRLLKDRRSPLGAAQYEAAAQAVV, MGSDKIHHHHHHMSESKIDNRLWSSKARNLSPYVPGEQPQHDDLCKLNTNENPFPPSPKVGEAITKVLAQQADDLRLYPAPESEELRGALAALYNLDINQVFVGNGSDEVLALVFASFFLKNRPVLAPDISYSFYPVYANTFGIELVQIPLEADFSISPDAYRRPCSGIIIANPNAPTGLLLSLADIRKLAGEHSDSVIVIDEAYIDFAQLEEASAESQMSAISLINEFDNLLVTQTFSKSRSLAGLRVGMAFGNASLIEALTRMKNSFNSYPLDKLAQAGATASVLDVEYFEQTCQQVIDLRTSLTAELTALGYDVLPSHANFVFARPHDGAASQVAEVLREQGIIVRHFDKPRINEYLRITIGTPSQHERLINALKALQAVADVEAS, MGSDKIHHHHHHMSFPDVTNYYLFAQVMACGSISAASRELGLPKSTISRKMALLEQEQGTRLFHRSRSGLKLTDVGREFLVHCERLVSAAESAQQVTQRLLDKPRGKVEISAPYALSQSLLVQVLPEFMSLYPEVEIQLVVTNRPVNLIEEGIDIALRVRKNIEDSSLIARPISQAPQTLYIAPDLINQNSITEPEDLLTFEHLSMHYTNGRYGYELIHSSGLQKNIRIKPRLITDDMIVLREAAIKKLGIVALPNYLCNDAVNSGELVPVLTDWHLPIGIMHITYSHRRGILPAVRVLIDFLAEKLPHLAQQQF, MGSDKIHHHHHHMSHDTVSPGLSLREIRAILAVAEQRGFSSAARRLNISQSSLSRTIHRAESVLAIRLFQRGWGGAEPTPEGEIVRQHCTQVMAELLHERDALMAAGLTRLPLPLDLRWRDLACVAAVVHTGKTTTAAKWLRTSQSSVSRTLGAISVRLGSPLFQRSGEGLRAEPLAERLVALRDRMCARMQPLQERLGHLAGEVTGRLAVGMTPFCEQERVAQAFGDLLVAYPQLRLSAVTGSYVMLTDALRCGEIDLVVGLLRELGEDDELAELPLAEEAITVLARSDHPCAVRSVSMEDLARQTWIVAPAGTPIRAYFERLFLGMGKTPPVQTCEIVTFHLAESMVRESQSLALLLYSPRKVRELPPGLVRVPVTLPDNRRHIGVTYRRDAGLSFTQRQFIDGLAKRFASDDDAEGNAP, MGSDKIHHHHHHMSIKSDKWIRRMSEEFGMIDPFEPNQIKEADGQRIISYGTSSYGYDIRCANEFKIFTNINSTIVDPKNFDPKNFVTVEDDCCIIPPNSFALARTVEYFRIPRNVLTVCLGKSTYARCGIIVNVTPFEPEWEGYVTLEFSNTTPLPAKIYAGEGVAQVLFFESDEVCETSYKDRNGKYMGQTGVTLPKA, MGSDKIHHHHHHMSISLATISGRVHAGERISDEEALFLFESRDPLAVGELAAAVNRRRNGDRVFFNVNRHINHTNICVNRCSFCAFYRAADEPGAYLYDLEEIRNRAAEAHAQGATEIHIVGGLHPDLPFDFYLAMLRTVKEVSPDLHVKAFTAVEIEYLSRLAGLSTAETLTVLKEAGLGSLPGGGAEIFAPAVRNRLCPEKISGDKWLAIMEEVHRAGLKSNATMLYGHIESYADRVDHMRRLRELQDRTGGFQVFIPLAFQKDNNPLGHLKRPGPGGVDALLTLAVARIYLDNFANIKAYWVMLGVKIAQTSLAFGVNDLDGTVVEEKIGHDAGAASPQTMGRDEIVSLIRTAGRVPVERDTLYNELRVY, MGSDKIHHHHHHMSITPHRLPVAPVIVREAYLSLLRKGWRPGDRDLKTPRNVKIETGIIEKAEGSALVKLGKTQVIAGVKAGVGAPFKDTPNQGVLTVHAEFVPLASPVFEPGPPDENAIELARVVDRSLREVGAVDLESLVIRPGEKVWVLWVDLYIIDHDGNLFDASMLATMAVLLTARLPRYEESETGEIIISKEGEGEELKVKTRVVTVTTAKIDRYIVVDPNIEEEAVSDVRLVTAVDENGRIVGLQKTGMGSLTEADIETMIGYSLEASKVYFKALEEAIKP, MGSDKIHHHHHHMSKAPDFEGLAMFAKVAEERSFAAAARVLGLSVATVSRGVSRLEERLGARLFNRTSRRLALTDFGHRLAERASRLYRDAEDAENAARELSASPRGLVRLAVPMSFGLRWVAPLLPDFFKLYPDVSIDMHLSDAVVDLIGEGFDAALRIAVLPDSSLVARRLCSIAPFIVAAPSYLARHGRPSTPRDLDAHHCLGYAYRPRQDVWHFSNAAGDEEVVTPSGPLRVTNSDALVPTVLAGIAIAELPEFIASEYLADGRLQAILTDWTLPRGALYFVTPSARARPAKVEAVAGFMAAHLSRPSWQPINP, MGSDKIHHHHHHMSKHVPKATLLTPSDVAFITDANRPVLTHTRNMAAEAGIEPHSHPRGQLLWAAKGLLRVRSENAVWVVPSTHAVWIPCNLPHQVNSETHAHTRNIYIDPSYDVRSLDTQVVMVTMTALMRELVLKLCESSHLMNSGQLHRLGLVAIDELETLDSLDAHLPAGSDPRLSRLIQKLIRHPTVNYTLTELAEMGGASVRTIERLFKAETGLTYRQWRQRFRLLNSLESLSQGESTTRVAHSLGYLSVSSFSAAFKMQFGCTPQDYPQHKPMKSKVNWFPDPVTGNN, MGSDKIHHHHHHMSKNEIIWFDGKWSDSGVPMIGAADHAFWMASTVFDGARAINGHLPDLSAHSQRVINSALTMGMKPKIDRQEIERLVHEGMSHLTNQETDYYIKMLFFCPGGFLLPDADTTTFALHIFEAPLPEDKGFSATFSEYRRPAPSMAPTEAKASCLYPNTQRIIRDAIARGFENAVVLDSDGNVAEFAVANLWIVRDGVALTPTPNGSFLNGITRQRVMALLRDDGITVRETQLAPSDVMEADEVFSTGNHGKVLHCNRVEDRSLPYGPIAQRARELYMAYAHTC
